Test results as given in patent US20240417484A1, “ANTIGEN-BINDING POLYPEPTIDES AGAINST CD73” (UNIVERSITÄTSKLINIKUM HAMBURG-EPPENDORF, priority 2021, published 2024).

Columns and labels:
[1] = biological target: T1, human CD73 (Homo sapiens, UniProt P21589); assay: Flow cytometry binding of rabbit IgG hcAbs to human CD73-transfected HEK cells; conditions: family representative clone; h = binds human CD73, m = binds mouse CD73
T1 construct: expressed in transfected cells; stably transfected in method 5.1)
T1 sequence (P21589 27-549): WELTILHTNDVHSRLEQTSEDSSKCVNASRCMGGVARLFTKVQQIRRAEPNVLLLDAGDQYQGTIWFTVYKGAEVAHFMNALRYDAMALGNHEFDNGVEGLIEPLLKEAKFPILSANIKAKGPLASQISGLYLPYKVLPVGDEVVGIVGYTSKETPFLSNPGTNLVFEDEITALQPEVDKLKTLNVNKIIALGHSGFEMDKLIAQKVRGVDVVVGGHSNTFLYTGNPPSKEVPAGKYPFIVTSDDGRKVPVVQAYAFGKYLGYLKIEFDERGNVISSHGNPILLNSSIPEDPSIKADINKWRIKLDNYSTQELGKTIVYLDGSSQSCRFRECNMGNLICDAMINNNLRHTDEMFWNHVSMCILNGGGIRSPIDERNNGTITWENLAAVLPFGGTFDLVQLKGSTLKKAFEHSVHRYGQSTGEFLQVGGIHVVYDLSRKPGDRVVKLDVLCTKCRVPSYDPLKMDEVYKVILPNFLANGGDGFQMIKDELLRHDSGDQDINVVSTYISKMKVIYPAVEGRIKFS
Method: HEK cells were co-transfected with expression vectors for green fluorescent protein (GFP) and human CD73, mouse CD73, and a control cell surface protein (CD39). 48 h after transfection, cells were incubated with HEK cell supernatants containing the indicated rabbit IgG hcAbs. Bound antibodies were detected with PE-conjugated anti rabbit IgG secondary antibody.
(§1) • 5.1 Untransfected HEK293 cells and HEK293 cells stably transfected with human or mouse CD73 were incubated for 30 min with HEK-6E cell supernatants containing rabbit IgG hcAbs (diluted 1:10 in PBS/0.1% BSA). Following washing with PBS/0.1% BSA, bound antibodies were detected with PE-conjugated goat anti-rabbit IgG polyclonal antibody (711-116-152 Dianova, Hamburg). • 5.2 For dissociation analyses, two separate aliquots of CD73-transfected cells were incubated either with Cell Proliferation Dye eFluor 450 (eBioscience) or with hcAbs for 20 min at RT. Cells were washed four times, mixed at a 1:1 ratio and further incubated at RT for 120 min before staining of bound antibodies with PE-conjugated goat anti-rabbit IgG polyclonal antibody. The dissociation of hcAbs from the target cells and association with the eFluor 450 labeled cells was analyzed by flow cytometry using the FlowJo software (Treestar). • 5.3 For epitope analyses, cells were preincubated with excess human IgG hcAbs (10 μl HEK-6E cell supernatant/100 μl PBS/0.1% BSA) for 30 min at RT before addition of Nb-rabbit IgG hcAbs (1 μl HEK-6E cell supernatant/100 μl PBS/0.1% BSA) and further incubation for 20 min at RT and staining with PE-conjugated anti-rabbit polyclonal antibody (711-116-152 Dianova, Hamburg). Cells were washed and analyzed by flow cytometry on a BD-FACS Canto. Data were analyzed using the FlowJo software (Treestar).
The binding specificities of the purified hcAbs were determined by flow cytometry using HEK cells transiently co-transfected with expression vectors for GFP and either mouse CD73, human CD73 or a control protein (CD39). 1×10^6 cells were incubated with 10 μl of the Nb-rbIgG hcAb containing HEK-6E cell supernatants for 30 min at 4° C. After washing, the cells were incubated with PE-conjugated anti-rabbit IgG polyclonal antibody (711-116-152 Dianova, Hamburg) and washed twice. The cells were resuspended in PBS and analyzed by flow cytometry on FACS Canto or FACS Celesta (BD Biosciences, Heidelberg). Data evaluation was conducted using the software FlowJo (Treestar, Stanford, US).

[2] = biological target: T2, soluble human CD73 (Homo sapiens, UniProt P21589); assay: Off-rates of soluble CD73 from immobilized Nb-rbIgG hcAb on Octet BLI; format: binding; conditions: soluble human CD73 ectodomain 200 ng/μl as analyte; Nb-rbIgG hcAb immobilized on protein A biosensor
T2 construct: The ectodomain of CD73 (aa 27-549) was expressed as a recombinant protein with a C-terminal His6× tag; His6 (C); made in house; host or cells: transiently transfected HEK cells
T2 sequence (P21589 27-549): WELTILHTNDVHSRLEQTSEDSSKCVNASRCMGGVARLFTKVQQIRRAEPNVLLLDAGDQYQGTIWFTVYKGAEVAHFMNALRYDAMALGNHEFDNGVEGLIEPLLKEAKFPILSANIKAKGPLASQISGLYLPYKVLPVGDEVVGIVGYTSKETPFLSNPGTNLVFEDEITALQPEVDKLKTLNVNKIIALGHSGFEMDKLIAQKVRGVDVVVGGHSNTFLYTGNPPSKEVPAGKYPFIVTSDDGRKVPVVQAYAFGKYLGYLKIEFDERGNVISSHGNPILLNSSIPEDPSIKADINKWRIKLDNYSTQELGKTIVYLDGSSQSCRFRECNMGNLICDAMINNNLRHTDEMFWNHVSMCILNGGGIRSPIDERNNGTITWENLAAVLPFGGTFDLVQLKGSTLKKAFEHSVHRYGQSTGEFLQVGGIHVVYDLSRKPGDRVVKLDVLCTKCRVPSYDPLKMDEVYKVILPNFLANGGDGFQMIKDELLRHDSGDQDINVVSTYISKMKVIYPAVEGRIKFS
Method: The binding off-rate constants of bivalent hcAbs to human and mouse CD73 protein were determined by […] kinetic analysis on Octet RED96 (ForteBio). Immobilization of rabbit IgG hcAbs on the protein A-biosensor surface was done in HEK-6E cell supernatant, and regeneration of analytes was done with 100 mM Glycin pH=2.5. Recombinant mouse or human CD73 ectodomain was used as analytes and tested at a saturating dose of 200 ng/μl. Sensorgrams were fitted using least square regression in association than dissociation Model in Prism8 (Graphpad).

[3] = biological target: T3, human CD73-transfected HEK cells (Homo sapiens, UniProt P21589); assay: Epitope binning by flow cytometry (human IgG hcAb blocks rabbit IgG hcAb); format: binding; conditions: epitope assignment on human CD73 from binning
T3 construct: expressed in transfected cells; stably transfected in method 5.1)
T3 sequence (P21589 27-549): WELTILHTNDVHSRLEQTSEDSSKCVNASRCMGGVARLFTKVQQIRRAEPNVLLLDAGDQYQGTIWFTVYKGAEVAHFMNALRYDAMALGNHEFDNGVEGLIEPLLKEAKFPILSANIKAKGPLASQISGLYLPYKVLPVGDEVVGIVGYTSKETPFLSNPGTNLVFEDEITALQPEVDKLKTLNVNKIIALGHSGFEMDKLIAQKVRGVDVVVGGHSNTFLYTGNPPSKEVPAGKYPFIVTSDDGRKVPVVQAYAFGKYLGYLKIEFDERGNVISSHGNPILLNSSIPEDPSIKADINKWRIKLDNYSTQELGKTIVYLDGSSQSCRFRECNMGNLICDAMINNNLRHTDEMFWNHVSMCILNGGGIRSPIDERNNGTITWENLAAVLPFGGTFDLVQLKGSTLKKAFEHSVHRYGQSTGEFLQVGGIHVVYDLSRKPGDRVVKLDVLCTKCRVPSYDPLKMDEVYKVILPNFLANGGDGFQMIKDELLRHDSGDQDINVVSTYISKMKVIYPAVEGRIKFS
Method: as §1
To evaluate the epitopes on the CD73 protein recognized by different VHHs, representative rabbit IgG hcAbs were binned against a set of human IgG hcAbs, and bound hcAbs were detected with a PE-conjugated anti-rabbit IgG secondary antibody. Cells were pre-incubated with excess human IgG hcAbs for […] at RT to block specific epitopes before addition of rabbit IgG hcAbs as detectors and further incubation for 15 min at RT. Cells were washed, and bound antibodies were detected with PE-conjugated anti-rabbit IgG polyclonal antibody. Cells were washed and analyzed by flow cytometry on a BD-FACS Canto. Data were analyzed using the FlowJo software (Treestar). Lack of blockade by a non-binding control human IgG hcAb served as negative control (unblocked), and blockade of binding with the same VHH carrying human IgG hcAb as the rabbit IgG hcAb used for detection served as positive controls for blocking. Values for blocking were determined by comparing the mean fluorescence intensities (MFIs) of PE staining of transfected cells for unblocked vs blocked rabbit hcAbs using the formula: inhibition (%)=100−(MFI (blocked)/MFI MFI(unblocked)*100). The values were rounded to whole percentages.

[4] = biological target: T2, soluble human CD73; assay: AMP hydrolysis by soluble CD73, DPEA-Napht-Azide fluorescence assay; format: biochemical; conditions: 50 ng CD73, 30 min pre-incubation with 10 μl hcAb supernatant, 1 mM AMP
Method: Recombinant human CD73 (50 ng) was pre-incubated for 30 min with hcAbs at RT in 96 well plates before addition of AMP and DPEA-Napht-Azide. Fluorescence signals were detected every 50 seconds for 30 repeats. ARFU values (>10^3/min) were calculated for a 10 min interval during the linear phase (from 5 min to 15 min) using Prism software (Graphpad). A non-specific rabbit IgG hcAb was used as control.
• 4.1 CD73 catalyzes the hydrolysis of AMP to adenosine. This reaction can be monitored by the shift in fluorescence intensity of DPEA-Napht-Azide. This property was used to determine whether hcAbs could interfere with the enzymatic activity of CD73. Soluble recombinant human CD73 (50 ng) was pre-incubated for 30 min with Nbs or hcAbs (10 μl HEK-6E cell supernatant containing 10-100 μg/ml hcAb) at RT in 96 well plates before addition of AMP (Sigma) to a final concentration of 1 mM and of DPEA-Napht-Azide to a final concentration of 50 μM. • 4.2 Fluorescence signals were recorded in white Nunc MicroWell plates (Nunc, 136101) on a Victor III plate reader (Perkin Elmer) (Exicitation filter: F485, Emission Filter: F535; CW-Lamp energy: 40000, counting time: 0.1 s). Data analyses were performed using Prism (Graphpad).
Soluble recombinant human CD73 (50 ng) was pre-incubated for 30 min with CD73-specific hcAbs or an irrelevant control hcAb (10 μl HEK-6E cell supernatant) at RT in 96 well plates before addition of AMP (Sigma) to a final concentration of 1 mM and of DPEA-Napht-Azide to a final concentration of 50 μM. Fluorescence signals were detected every 50 seconds for 30 repeats. Data analyses were performed using Prism (Graphpad).

Row | Molecule | specificity [1] | Kdis [2] | Epitope [3] | effect on hydrolysis of AMP by soluble CD73 [4]
1 | SB139: CD73-specific alpaca VHH clone, family 6, SEQ ID NO:83; tested as rabbit or human IgG hcAb (antibody, left off: a dimerising Fc or GST, tested as rabbit or human IgG hcAb) heavy: QVQLQESGGGLVQAGGSLRLSCAASENIFNIYGMGWYRQAPGKLRDLVAKITSGGRTTYADSVKGRFTISGDNAKNTVYLQMNSLKPEDTAVYYCNSYYYWGQGTQVTVSS | h + m | 0.046 s⁻¹ | – | –
2 | SB116: CD73-specific alpaca VHH clone, family 3, SEQ ID NO:81; tested as rabbit or human IgG hcAb (antibody, left off: a dimerising Fc or GST, tested as rabbit or human IgG hcAb) heavy: QVKLQESGGGRVQTGGSLRLSCAASGISFSITTMYWYRQAPGEQRQLVALITDRGNTYYVDSVKGRFTISRDDSKNTVYLQMNDLKPEDTAVYFCNSIPGNDWGQGTQVTVSS | h + m | 0.00017 s⁻¹ | 1 | effectively blocked hydrolysis of AMP
3 | SB121: CD73-specific alpaca VHH clone, family 5, SEQ ID NO:82; tested as rabbit or human IgG hcAb (antibody, left off: a dimerising Fc or GST, tested as rabbit or human IgG hcAb) heavy: QVQLQESGGGLVQAGGSLRLSCAASGSIGSIIAMGWYRQGPGKQRELVARMFTDDGSTNYDDSVKGRFTISRDSAGTTVYLQMNSLKPEDTAVYYCNAQRRWNAYWGPGTQVTVSS | h + m | 0.022 s⁻¹ | 4 | –
